Test system: C57BL/6JNarl mice
Test: Hepatic triglycerides after 7 weeks of lactoferrin, chromium or lactoferrin+chromium in high-fat-diet mice
Assay type: in vivo
Settings: 10 mice in each group
Protocol: Male C57BL/6JNarl mice (n=70) fed with high fat diet (high-fat Rodent TestDiet, PMI International Inc., MO, USA; 67% of calories provided by fat), age 8 weeks, are randomly divided into the control group, the low-dose lactoferrin group (NZMP lactoferrin, New Zealand, 40 mg/kg BW/day), the high-dose lactoferrin group (80 mg/kg BW/day), the low-dose chromium group (CrCl3·6H2O, Sigma, Cr^+3 40 μg/kg BW/day), the high dose chromium group (Cr^+3 80 μg/kg BW/day), the low-dose lactoferrin+chromium group (lactoferrin 40 mg/kg BW/day+Cr^+3 40 μg/kg BW/day), and the high-dose lactoferrin+chromium group (lactoferrin 80 mg/kg BW/day+Cr^+3 80 μg/kg BW/day) (10 mice in each group). After supplementation for 7 weeks, the C57BL/6JNarl mice are sacrificed and their livers are harvested. Then, the level of hepatic triglycerides is analyzed. […] However, no significant difference between the other groups is found.

B1: Lactoferrin: NZMP lactoferrin, New Zealand; a glycoprotein that is capable of combining with metal ions (protein, UniProt P24627 20-708, looked up)
Lactotransferrin: APRKNVRWCTISQPEWFKCRRWQWRMKKLGAPSITCVRRAFALECIRAIAEKKADAVTLDGGMVFEAGRDPYKLRPVAAEIYGTKESPQTHYYAVAVVKKGSNFQLDQLQGRKSCHTGLGRSAGWIIPMGILRPYLSWTESLEPLQGAVAKFFSASCVPCIDRQAYPNLCQLCKGEGENQCACSSREPYFGYSGAFKCLQDGAGDVAFVKETTVFENLPEKADRDQYELLCLNNSRAPVDAFKECHLAQVPSHAVVARSVDGKEDLIWKLLSKAQEKFGKNKSRSFQLFGSPPGQRDLLFKDSALGFLRIPSKVDSALYLGSRYLTTLKNLRETAEEVKARYTRVVWCAVGPEEQKKCQQWSQQSGQNVTCATASTTDDCIVLVLKGEADALNLDGGYIYTAGKCGLVPVLAENRKSSKHSSLDCVLRPTEGYLAVAVVKKANEGLTWNSLKDKKSCHTAVDRTAGWNIPMGLIVNQTGSCAFDEFFSQSCAPGADPKSRLCALCAGDDQGLDKCVPNSKEKYYGYTGAFRCLAEDVGDVAFVKNDTVWENTNGESTADWAKNLNREDFRLLCLDGTRKPVTEAQSCHLAVAPNHAVVSRSDRAAHVKQVLLHQQALFGKNGKNCPDKFCLFKSETKNLLFNDNTECLAKLGGRPTYEEYLGTEYVTAIANLKKCSTSPLLEACAFLTR
- Hepatic triglycerides, High-dose (High-dose: lactoferrin 80 mg/kg BW/day and/or Cr+3 80 μg/kg BW/day): 18.1 ± 7.2 μ mol/g liver
- Hepatic triglycerides, Low-dose (Low-dose: lactoferrin 40 mg/kg BW/day and/or Cr+3 40 μg/kg BW/day): 18.4 ± 6.0 μ mol/g liver

Reference: patent publication US20120064176A1, “COMPOSITION FOR PREVENTING AND TREATING FATTY LIVER” (National Chung Hsing University, priority 2008, published 2012)
